Results as given in article PMC5994540.

Assays:
[1] = surface/total GFP immunofluorescence, hippocampal neuron dendrites; conditions: glycan lost; control: wild-type GluN3A
[2] = spine/shaft GFP fluorescence ratio, hippocampal neurons; conditions: glycan lost; control: wild-type GluN3A
[3] = surface/total immunofluorescence, COS-7, with GluN1-4a; conditions: glycan lost; control: wild-type GluN1/GluN3A
[4] = surface biotinylation, endogenous GluN3A, rat hippocampal neurons; conditions: control: untreated
[5] = surface/total GFP immunofluorescence, GFP-GluN3A in hippocampal neurons; conditions: control: untreated
[6] = surface immunofluorescence, GluN1/GluN3A in COS-7; conditions: control: untreated
[7] = whole-cell patch clamp, 500 μM glycine, HEK293; conditions: glycan lost; control: wild-type GluN1/GluN3A, untreated
[8] = surface immunofluorescence, GluN1/GluN3A in human CDG patient fibroblasts; conditions: glycan lost; control: control fibroblasts

B1: GluN3A subunit: GluN3A-12N→12Q (protein)
parent chain: MRRLSLWWLLSRVCLLLPPPCALVLAGVPSSSSHPQPCQILKRIGHAVRVGAVHLQPWTTAPRAASRAQEGGRAGAQRDDPESGTWRPPAPSQGARWLGSALHGRGPPGSRKLGEGAGAETLWPRDALLFAVENLNRVEGLLPYNLSLEVVMAIEAGLGDLPLMPFSSPSSPWSSDPFSFLQSVCHTVVVQGVSALLAFPQSQGEMMELDLVSSVLHIPVLSIVRHEFPRESQNPLHLQLSLENSLSSDADVTVSILTMNNWYNFSLLLCQEDWNITDFLLLTENNSKFHLESVINITANLSSTKDLLSFLQVQMDNIRNSTPTMVMFGCDMDSIRQIFEMSTQFGLSPPELHWVLGDSQNVEELRTEGLPLGLIAHGKTTQSVFEYYVQDAMELVARAVATATMIQPELALLPSTMNCMDVKTTNLTSGQYLSRFLANTTFRGLSGSIKVKGSTIISSENNFFIWNLQHDPMGKPMWTRLGSWQGGRIVMDSGIWPEQAQRHKTHFQHPNKLHLRVVTLIEHPFVFTREVDDEGLCPAGQLCLDPMTNDSSMLDRLFSSLHSSNDTVPIKFKKCCYGYCIDLLEQLAEDMNFDFDLYIVGDGKYGAWKNGHWTGLVGDLLSGTANMAVTSFSINTARSQVIDFTSPFFSTSLGILVRTRDTAAPIGAFMWPLHWTMWLGIFVALHITAIFLTLYEWKSPFGMTPKGRNRNKVFSFSSALNVCYALLFGRTAAIKPPKCWTGRFLMNLWAIFCMFCLSTYTANLAAVMVGEKIYEELSGIHDPKLHHPSQGFRFGTVRESSAEDYVRQSFPEMHEYMRRYNVPATPDGVQYLKNDPEKLDAFIMDKALLDYEVSIDADCKLLTVGKPFAIEGYGIGLPPNSPLTSNISELISQYKSHGFMDVLHDKWYKVVPCGKRSFAVTETLQMGIKHFSGLFVLLCIGFGLSILTTIGEHIVHRLLLPRIKNKSKLQYWLHTSQRFHRALNTSFVEEKQPRSKTKRVEKSRWRRWTCKTEGDSELSLFPRSNLGPQQLMVWNTSNLSHDNQRKYIFNDEEGQNQLGTQAHQDIPLPQRRRELPASLTTNGKADSLNVTRSSVIQELSELEKQIQVIRQELQLAVSRKTELEEYQKTNRTCES
For B1, which localisation_or_trafficking [1] is on record?
The localisation_or_trafficking was “decreases”.

What about the localisation_or_trafficking [2] of the same protein?
The localisation_or_trafficking was “decreases”.

And the localisation_or_trafficking [3]?
The localisation_or_trafficking was “abolishes”.

B2: GluN3A subunit: kifunensine (protein)
parent chain: B1 parent chain
Which results are given for B2?
localisation_or_trafficking ([4]; glycan changed form): no change; localisation_or_trafficking ([5]; glycan changed form): no change; localisation_or_trafficking ([6]; glycan changed form): no change

B3: GluN3A subunit: DMM (protein)
parent chain: B1 parent chain
With B3 as the protein, how does the localisation_or_trafficking ([4]; glycan changed form) read?
Its localisation_or_trafficking is “no change”.

What about the localisation_or_trafficking ([5]; glycan changed form) of the same protein?
Its localisation_or_trafficking is “no change”.

And the localisation_or_trafficking ([6]; glycan changed form)?
Its localisation_or_trafficking is “no change”.

B4: GluN3A subunit: swainsonine (protein)
parent chain: B1 parent chain
Which localisation_or_trafficking ([4]; glycan changed form) does the source give for B4 here?
Its localisation_or_trafficking is “no change”.

And the localisation_or_trafficking ([5]; glycan changed form)?
The localisation_or_trafficking was “no change”.

What about the localisation_or_trafficking ([6]; glycan changed form) of the same protein?
Its localisation_or_trafficking is “no change”.

B5: GluN3A subunit: GluN3A-2/2N→Q (protein)
parent chain: B1 parent chain
With B5 as the protein, how does the localisation_or_trafficking [1] read?
Its localisation_or_trafficking is “no change”.

And the localisation_or_trafficking [3]?
Its localisation_or_trafficking is “no change”.

B6: GluN3A subunit: GluN3A-1/4N→Q (protein)
parent chain: B1 parent chain
Which results are given for B6?
localisation_or_trafficking [1]: decreases; localisation_or_trafficking [2]: decreases; other: channel desensitisation (τw), other: τw of desensitization [7]: no change; localisation_or_trafficking [3]: decreases

B7: GluN3A subunit: N886Q (protein)
parent chain: B1 parent chain
With B7 as the protein, how does the localisation_or_trafficking [3] read?
Its localisation_or_trafficking is “no change”.

B8: GluN3A subunit: PNGase F (protein)
parent chain: B1 parent chain
With B8 as the protein, how does the “other: channel desensitisation (τw), other: τw of desensitization” value [7] read?
Its value is “no change”.

B9: GluN3A subunit: DNJ (protein)
parent chain: B1 parent chain
With B9 as the protein, how does the localisation_or_trafficking ([4]; glycan changed form) read?
The localisation_or_trafficking was “no change”.

What about the localisation_or_trafficking ([5]; glycan changed form) of the same protein?
Its localisation_or_trafficking is “no change”.

And the localisation_or_trafficking ([6]; glycan changed form)?
Its localisation_or_trafficking is “no change”.

B10: GluN3A subunit: GluN3A-1/2N→Q (protein)
parent chain: B1 parent chain
For B10, which localisation_or_trafficking [1] is on record?
Its localisation_or_trafficking is “decreases”.

What about the localisation_or_trafficking [3] of the same protein?
Its localisation_or_trafficking is “decreases”.

B11: GluN3A subunit: N565Q (protein)
parent chain: B1 parent chain
With B11 as the protein, how does the localisation_or_trafficking [3] read?
Its localisation_or_trafficking is “no change”.

B12: GluN3A subunit: N549Q (protein)
parent chain: B1 parent chain
With B12 as the protein, how does the localisation_or_trafficking [3] read?
The localisation_or_trafficking was “no change”.

B13: GluN3A subunit: DPAGT1-CDG (protein)
parent chain: B1 parent chain
For B13, which localisation_or_trafficking [8] is on record?
The localisation_or_trafficking was “no change”.

B14: GluN3A subunit: ALG8-CDG (protein)
parent chain: B1 parent chain
With B14 as the protein, how does the localisation_or_trafficking [8] read?
Its localisation_or_trafficking is “decreases”.

B15: GluN3A subunit: tunicamycin (protein)
parent chain: B1 parent chain
With B15 as the protein, how does the localisation_or_trafficking ([4]; glycan lost) read?
Its localisation_or_trafficking is “decreases”.

What about the localisation_or_trafficking ([5]; glycan lost) of the same protein?
Its localisation_or_trafficking is “decreases”.

And the localisation_or_trafficking ([6]; glycan lost)?
Its localisation_or_trafficking is “decreases”.
